Experimental findings from patent US12065505B2, “Antibodies and antigen binding peptides for factor XIa inhibitors and uses thereof” (Bristol-Myers Squibb Company, priority 2021, dated 2024) are described below.

Data set [1] deals with rabbit plasma clotting time (aPTT). Briefly: In vivo reversal of Compound A anticoagulant effect by Fab, rabbit plasma aPTT. To be noted: Compound A 1 mg/kg IV, mean of 3 animals. Here is the method:
In vivo experiments were conducted in accordance with the regulations of the Animal Care and Use Committee of the Bristol-Myers Squibb Company. Rabbits (male New Zealand White, 2 to 4 kg) were instrumented with indwelling catheters in the central ear artery for blood sampling and marginal ear vein for substance administration. Compound A was administered as a constant intravenous infusion at a dose of 1.0 mg/kg over 10 minutes. Beginning 20 minutes after the Compound A infusion was complete, the antibody Fab fragment 26D5-75616-348-F10-Fab-SHORT was administered as a constant intravenous infusion at a dose of 160 mg/kg over 10 minutes. […]
The anticoagulant effects of Compound A were measured in activated partial thromboplastin time (aPTT). The aPTT was determined using ACTIN® FS (Siemens/Dade-Behring) following the directions in the package insert. […] The clotting time was the time in seconds from the moment calcium chloride was added until a clot was detected. […]

Data set [2] is described as follows: Competitive TR-FRET assay, mAbs (T0 and T24). Particulars: 37° C.; difference between T0 and T24 IC50s; IgG1f mAb format. In kind it is binding. Here is the method:
A competitive TR-FRET (time-resolved fluorescence resonance energy transfer) assay was developed to rank-order the dissociation of α-Compound A mAbs from Compound A as equilibrium is reached at 37° C. The assay buffer was HBS-N (10 mM HEPES, 150 mM NaCl, pH 7.4; GE Healthcare), 0.1% (w/v) BSA (bovine serum albumin; Sigma), 2% DMSO (dimethyl sulfoxide; Sigma). All reagents were prepared in assay buffer and dispensed in equal volumes into white 384 microplates with final volume of 20 μl per well at the following final concentrations: 4 nM COMPOUND 5, the biotinylated analog of COMPOUND 2, a 100 0.1 nM 7-pt titration of human α-Compound A antibodies, 0.1 nM europium-labeled α-mouse IgG (LANCE Eu-W1024; PerkinElmer), 5 nM streptavidin-D2 (Cisbio), and 4 nM mAb 26D5 VH_A10G_Y33A_S53P_M89V_G95A; VK_W32N_H38Q (P1-075621, the second-round optimization parent 26D5-295-B08 formatted with mouse IgG Fc). COMPOUND 5 and α-Compound A antibody titrations were added first to the microplate, and were subjected to an initial incubation at 37° C., 1000 rpm, for one hour to facilitate antibody binding to the compound. After the initial incubation period, the europium α-mouse IgG, streptavidin-D2, and 26D5-mouse IgG (P1-075621) were added sequentially, then the plate was returned to 37° C., 1000 rpm incubation. Microplates were read using a Perkin Elmer EnVision plate reader, and the measured FRET signal was defined as [665 nm]/[620 nm]*10,000. Microplates were read at 30 minutes (T0) and after 24 hour (T24) intervals. […]
Background: Time-resolved FRET reads energy transfer from a long-lived donor to a nearby acceptor.

Data set [3] is described as follows: SPR (Biacore) Protein A mAb capture, Compound A injected. Particulars: 37° C., binding to Compound A, for rank ordering only. In short, it runs like this:
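Parent and affinity-matured IgG1f mAbs were captured at 2 ug/mL on a high-density protein A chip. Compound A was injected at 100–3 nM for 2 min, with at least 450 s dissociation, at 37 °C in PBS pH 7.4 with 0.05% Tween 20 and 2% DMSO. Apparent affinities were used for rank ordering only, because off-rates were too slow to measure.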

Read-outs that look alike come from different tables or passages of the source. Where only a bound is given, the exact number is not on record here.

For the molecule `C[C@@H]1CCC[C@H](n2cnc(-c3cc(Cl)ccc3-n3cc(Cl)nn3)cc2=O)c2cc(ccn2)-c2c(cnn2C(F)F)NC1=O` [Compound A, (5R,9S)-9-(4-(5-chloro-2-(4-chloro-1H-1,2,3-triazol-1-yl)phenyl)-6-oxopyrimidin-1(6H)-yl)-21-(difluoromethyl)-5-methyl-21H-3-aza-1(4,2)-pyridina-2(5,4)-pyrazolacyclononaphan-4-one, reference compound], the “rabbit plasma aPTT increase relative to baseline” value in data set [1] is “approximately 2 fold”.

B1: 26D5-75747-348-D07-mAb: human IgG1f/kappa mAb; VH SEQ ID NO: 57, VL SEQ ID NO: 90 (antibody, V domains shown)
VH: EVQLVESGGGLIQPGGSLRLSCAASGFTVSSNAFSWVRQAPGKGLEWVSYIYSGGRTYYADSVKGRFTISRDNSKNTLYLQMNSLRAEDTAVYYCAAAGFGGGDYWGQGTLVTVSS
VL: DIQMTQSPSSVSASVGDRVTITCRASQGISSQVAWYQQKPGKAPKLLIYYASSLQSGVPSRFSGSGSGTDFTLTISSLQPEDFATYYCQQGNEFPLTFGGGTKVEIK
Turning to B1, the “T0-T24 IC50 shift (Δ)” value in data set [2] is 4.3 nM. In addition, the Kd in data set [3] (apparent affinity, listed as 26D5-75747-0348-D07-mAb, read-out: KD) is less than 0.03 nM; in data set [3] (apparent affinity, read-out: KD), less than 0.02 nM; in data set [3] (apparent) it was less than 5e-05 s⁻¹. Moreover, in data set [3] (apparent), the “Ka” value was found to be 2e+06 M⁻¹ s⁻¹.
